B1: MED27 (parent)
chain: YNENVYTEDGKLDIWSKSNYQVFQ

Here are results for 94 variants from the supplement of paper PMC10567573.
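Also: lentivirally expressed fusions sorted by FACS into six bins by GFP to DsRed ratio, PSI derived from sequencing read proportions per bin multiplied by bin number.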

In the series the parent is B1. The series can be described thus: protein stability index of a GFP-peptide fusion (GPS, HEK-293T) (PSI 1-6); higher = more stable. Conditions: c terminus: a fixed tail appended.
Regarding YNENVYTEDGKLDIWSKCNYQVFQ, the protein stability index came to 1.86. For the variant YNENVYTEDGKLDIWSKYNYQVFQ, the protein stability index was 2.26. Next, YNENVYTEDGKLDIWSKPNYQVFQ: 2.13; YNENVYTEDGKLDIWSKFNYQVFQ: 1.36; YNENVYTEDGKLDIWSKRNYQVFQ: 1.52. For YNENVYTEDGKLDIWSKDNYQVFQ, the protein stability index stood at 3.09. Next, YNENVYTEDGKLDIWSKANYQVFQ: 2.34; YNENVYTEDGKLDIWSKNNYQVFQ: 2.69; YNENVYTEDGKLDIWSKHNYQVFQ: 2.42. To YNENVYTEDGKLDIWSKQNYQVFQ belongs 2.56; to YNENVYTEDGKLDIWSKMNYQVFQ, 2.21; to YNENVYTEDGKLDIWSKKNYQVFQ, 1.97. Consider YNENVYTEDGKLDIWSKGNYQVFQ, for which the protein stability index came to 1.91.

Take YNENVYTEDGKLDIWSKINYQVFQ: the protein stability index was determined as 1.96. On to YNENVYTEDGKLDIWSKVNYQVFQ, for which the protein stability index came out at 2.58. As for YNENVYTEDGKLDIWSKWNYQVFQ, the protein stability index came to 1.68.

Take YNENVYTEDGKLDIWSKLNYQVFQ: the protein stability index came to 2. Consider YNENVYTEDGKLDIWSKENYQVFQ, for which the protein stability index was 3.33. With YNENVYTEDGKLDIWSASNYQVFQ, the protein stability index stood at 2.24.

For the variant YNENVYTEDGKLDIWSQSNYQVFQ, the protein stability index stood at 1.89. For YNENVYTEDGKLDIWSCSNYQVFQ, the protein stability index was determined as 1.54. Take YNENVYTEDGKLDIWSTSNYQVFQ: the protein stability index came to 1.84.

For the variant YNENVYTEDGKLDIWSRSNYQVFQ, the protein stability index was found to be 1.95. On to YNENVYTEDGKLDIWSGSNYQVFQ, for which the protein stability index turned out to be 2.34. As for YNENVYTEDGKLDIWSNSNYQVFQ, the protein stability index turned out to be 2.07. On to YNENVYTEDGKLDIWSLSNYQVFQ, for which the protein stability index is 2.22. For YNENVYTEDGKLDIWSSSNYQVFQ, the protein stability index turned out to be 1.98.

With YNENVYTEDGKLDIWSDSNYQVFQ, the protein stability index was 2.26. YNENVYTEDGKLDIWSFSNYQVFQ: the protein stability index was found to be 1.68. Next, YNENVYTEDGKLDIWSPSNYQVFQ: 2.68; YNENVYTEDGKLDIWSYSNYQVFQ: 1.98. To YNENVYTEDGKLDIWSISNYQVFQ belongs 1.74; to YNENVYTEDGKLDIWSESNYQVFQ, 2.37; to YNENVYTEDGKLDIWSHSNYQVFQ, 2.43. For YNENVYTEDGKLDIWSVSNYQVFQ, the protein stability index is 2.17.

On to YNENVYTEDGKLDIWSWSNYQVFQ, for which the protein stability index turned out to be 1.92.

Take YNENVYTEDGKLDIWSMSNYQVFQ: the protein stability index came out at 2.3.

For YNENVYTEDGKLDIWSKSNRQVFQ, the protein stability index was determined as 2.59. Take YNENVYTEDGKLDIWSKSNPQVFQ: the protein stability index came to 3.01.

On to YNENVYTEDGKLDIWSKSNNQVFQ, for which the protein stability index worked out at 3.28.

YNENVYTEDGKLDIWSKSNEQVFQ: the protein stability index amounted to 3.2. As for YNENVYTEDGKLDIWSKSNMQVFQ, the protein stability index turned out to be 1.92. Regarding YNENVYTEDGKLDIWSKSNAQVFQ, the protein stability index was 2.49. With YNENVYTEDGKLDIWSKSNKQVFQ, the protein stability index was determined as 2.76. To YNENVYTEDGKLDIWSKSNLQVFQ belongs 2.35; to YNENVYTEDGKLDIWSKSNWQVFQ, 1.64; to YNENVYTEDGKLDIWSKSNDQVFQ, 3.38. Next, YNENVYTEDGKLDIWSKSNCQVFQ: 2.49; YNENVYTEDGKLDIWSKSNHQVFQ: 2.58. Next, YNENVYTEDGKLDIWSKSNFQVFQ: 2.25.

For the variant YNENVYTEDGKLDIWSKSNVQVFQ, the protein stability index came to 2.52. In the case of YNENVYTEDGKLDIWSKSNTQVFQ, the protein stability index is 2.9. For the variant YNENVYTEDGKLDIWSKSNIQVFQ, the protein stability index is 2.37.

Consider YNENVYTEDGKLDIWSKSNSQVFQ, for which the protein stability index is 2.72. YNENVYTEDGKLDIWSKSNGQVFQ: the protein stability index came out at 2.62. For the variant YNENVYTEDGKLDIWSKSNQQVFQ, the protein stability index is 2.94.

On to YNENVYTEDGKLDIWSKSVYQVFQ, for which the protein stability index is 1.58.

Turning to YNENVYTEDGKLDIWSKSIYQVFQ, the protein stability index came to 1.6. As for YNENVYTEDGKLDIWSKSPYQVFQ, the protein stability index was 1.88.

As for YNENVYTEDGKLDIWSKSAYQVFQ, the protein stability index is 2.52. For the variant YNENVYTEDGKLDIWSKSKYQVFQ, the protein stability index came out at 1.96. Regarding YNENVYTEDGKLDIWSKSQYQVFQ, the protein stability index turned out to be 2.26. Next, YNENVYTEDGKLDIWSKSFYQVFQ: 1.67; YNENVYTEDGKLDIWSKSSYQVFQ: 2.05; YNENVYTEDGKLDIWSKSYYQVFQ: 2.56. As to YNENVYTEDGKLDIWSKSHYQVFQ, the protein stability index stood at 2.19. Take YNENVYTEDGKLDIWSKSGYQVFQ: the protein stability index was 1.96.

Consider YNENVYTEDGKLDIWSKSCYQVFQ, for which the protein stability index stood at 1.59.

On to YNENVYTEDGKLDIWSKSRYQVFQ, for which the protein stability index was determined as 2.4.

Regarding YNENVYTEDGKLDIWSKSLYQVFQ, the protein stability index came to 1.58.

On to YNENVYTEDGKLDIWSKSEYQVFQ, for which the protein stability index worked out at 3.36. Take YNENVYTEDGKLDIWSKSDYQVFQ: the protein stability index was 2.75. To YNENVYTEDGKLDIWSKSMYQVFQ belongs 1.94.

For the variant YNENVYTEDGKLDIWSKSTYQVFQ, the protein stability index amounted to 1.78. With YNENVYTEDGKLDIWSKSWYQVFQ, the protein stability index stood at 1.73. Next, YNENVYTEDGKLDHWSKSNYQVFQ: 2.83. As for YNENVYTEDGKLDPWSKSNYQVFQ, the protein stability index stood at 2.29.

In the case of YNENVYTEDGKLDWWSKSNYQVFQ, the protein stability index turned out to be 2.15.

On to YNENVYTEDGKLDAWSKSNYQVFQ, for which the protein stability index was determined as 2.9. To YNENVYTEDGKLDGWSKSNYQVFQ belongs 3.29; to YNENVYTEDGKLDEWSKSNYQVFQ, 3.87.

YNENVYTEDGKLDMWSKSNYQVFQ: the protein stability index stood at 2.65. Take YNENVYTEDGKLDRWSKSNYQVFQ: the protein stability index turned out to be 3.23. On to YNENVYTEDGKLDKWSKSNYQVFQ, for which the protein stability index stood at 2.71. Turning to YNENVYTEDGKLDLWSKSNYQVFQ, the protein stability index was determined as 2.49. For the variant YNENVYTEDGKLDNWSKSNYQVFQ, the protein stability index is 3.28. On to YNENVYTEDGKLDQWSKSNYQVFQ, for which the protein stability index was 3.07.

For YNENVYTEDGKLDYWSKSNYQVFQ, the protein stability index was 1.95. With YNENVYTEDGKLDDWSKSNYQVFQ, the protein stability index is 3.48.

As for YNENVYTEDGKLDVWSKSNYQVFQ, the protein stability index is 2.62.

As to YNENVYTEDGKLDTWSKSNYQVFQ, the protein stability index amounted to 2.78. On to YNENVYTEDGKLDSWSKSNYQVFQ, for which the protein stability index was 3.23. Regarding YNENVYTEDGKLDFWSKSNYQVFQ, the protein stability index worked out at 2.3.

For YNENVYTEDGKLDCWSKSNYQVFQ, the protein stability index turned out to be 2.92.
